Where two headings read alike, the source gives them in different places.
Legend:
U373MG tumor = assay: Biodistribution in tumor bearing nude mice; assay type: in vivo
Protocol: (§1) Male albino mice in a weight range of18-24 g were used for normal mice treatments and malenude mice (6 to 8 weeks old) were used for in-vivo tumor treatments. The mice were housed at controlled room temperature (25 °C) in a 12 h light/12 h dark schedule. They were kept in standard cages with free access to food and water except during the experiments. The nude mice were grown and kept in isolated sterile condition. All animal experiments were carried out in compliance with our institutional ethical guidelines.
(§2) U373MG cells were grown and harvested by trypsinization. Cells were washed twice with fresh RPMI medium containing 20% FBS and centrifuged for 5 min at 200 g. Pellets were resuspended in RPMI medium containing 20% FBS. A 100 µL suspension of 4 × 10^6 cells was subcutaneously injected on the right flank of each nude mouse. After four weeks, the size of inducted tumors was suitable for biodistribution study and mice were injected via the tail vein with radiolabeled peptide in two groups in the presence and absence of block. They sacrificed at 1 h and 4 h time points to assay the biodistribution. They were dissected and % ID/g of tissues was measured as described above. Finally, tumor-to-organ ratios were calculated.

[1] = Biodistribution in tumor bearing nude mice; assay type: in vivo; details: male, nude, mouse, iv, total radioactivity, mean ± SEM; for tissue uptake at 1 h: 1 h p.i.; for tissue uptake at 4 h: 4 h p.i.
Protocol: as §1, §2

Stability in human serum = assay type: in vitro ADME; details: fresh human serum, 37 °C, up to 24 h; sampled 1, 4, 24 h; ethanol precipitation; RP-HPLC
Protocol: The stability of radiolabeled peptide in aqueous solution was evaluated by incubation of the reaction mixture at room temperature (25 °C)up to 24 h.Stability in human serum at 37 °C was tested in parallel after adding 100 μL of reaction mixture to 1ml of fresh human serum. The incubation mixtures were sampled at 1, 4, and 24 h time points. Serum samples (100-200 μL) were treated with ethanol (200-400 μL) and centrifuged (4000 g, 5 min, 4 °C) to precipitate the serum proteins. 20-100 μL aliquots from the supernatant were separated to assess the degradation of ^99mTc labeled peptide by RP-HPLC (method I). 100 μL aliquots from the 25 °C incubated mixture were passed through a […] to eliminate possible ^99mTc colloids and then, 5-20 μL of filtrate were analyzed by RP-HPLC as well.

[2] = Protein binding in human serum; assay type: in vitro ADME; details: fresh human serum, 2 h incubation; ethanol precipitation, centrifugation; γ-counter
Protocol: For protein binding estimation, freshly labeled peptide solution was filtered through a […] and a 100 μL aliquot of filtrate was incubated in 1ml fresh human serum for 2 h. After ethanol treatment and centrifugation (4000 g, 5 min, 4 °C), all the supernatant was completely removed. A slight wash with 1x phosphate-buffered saline (PBS) was done on the surface of the sediment and the eluate was added to the removed supernatant. The total activity of the supernatant and the activity of the sediment were measured by well-type NaI γ-counter to determine the percentage of radio peptide bound or transferred to albumin and other serum proteins.

[3] = U373MG tumor, U373MG tumor, blocked tumor bearing nude mice (excess SP), P< 0.01 vs nonblocked, read-out: %ID/g Tumor
[4] = blood, Blood, blocked tumor bearing nude mice (excess SP), read-out: %ID/g Blood
[5] = bone, Bone, blocked tumor bearing nude mice (excess SP), read-out: %ID/g Bone
[6] = bone, Bone, tumor bearing nude mice, i.v., n=3, read-out: %ID/g Bone
[7] = heart, Heart, blocked tumor bearing nude mice (excess SP), read-out: %ID/g Heart
[8] = heart, Heart, tumor bearing nude mice, i.v., n=3, read-out: %ID/g Heart
[9] = kidneys, Kidneys, blocked tumor bearing nude mice (excess SP), read-out: %ID/g Kidneys
[10] = kidneys, Kidneys, tumor bearing nude mice, i.v., n=3, read-out: %ID/g Kidneys
[11] = muscle, Muscle, blocked tumor bearing nude mice (excess SP), read-out: %ID/g Muscle
[12] = muscle, Muscle, tumor bearing nude mice, i.v., n=3, read-out: %ID/g Muscle
[13] = salivary gland, Salivary G., blocked tumor bearing nude mice (excess SP), read-out: %ID/g Salivary G.
[14] = salivary gland, Salivary G., tumor bearing nude mice, i.v., n=3, read-out: %ID/g Salivary G.
[15] = spleen, Spleen, blocked tumor bearing nude mice (excess SP), read-out: %ID/g Spleen
[16] = spleen, Spleen, tumor bearing nude mice, i.v., n=3, read-out: %ID/g Spleen
[17] = stomach, Stomach, blocked tumor bearing nude mice (excess SP), read-out: %ID/g Stomach
[18] = stomach, Stomach, tumor bearing nude mice, i.v., n=3, read-out: %ID/g Stomach

CC(C)C[C@H](NC(=O)CNC(=O)[C@H](Cc1ccc(O)cc1)NC(=O)[C@H](Cc1ccccc1)NC(=O)[C@H](CCC(N)=O)NC(=O)[C@H](CCC(N)=O)NC(=O)[C@@H]1CCCN1C(=O)[C@H](CCCCN)NC(=O)[C@@H]1CCCN1C(=O)[C@H](CCCNC(=N)N)NC(=O)c1ccc(NN)nc1)C(=O)N[C@@H](CC[S+](C)[O-])C(N)=O (stereo partly drawn) [^99mTc-HYNIC-Tyr^8-Met(O)^11-SP, metal not drawn]
D% Blood (U373MG tumor; Blood, decreased percent of %ID/g between 1 h and 4 h, nude mice): 69%
%ID/g Blood (U373MG tumor; Blood, tumor bearing nude mice, 1 h p.i., i.v., mean ± SEM, n=3): 1.32±0.16 %ID/g
D% Bone (U373MG tumor; Bone, decreased percent of %ID/g between 1 h and 4 h, nude mice): 48%
D% Heart (U373MG tumor; Heart, decreased percent of %ID/g between 1 h and 4 h, nude mice): 68%
D% Kidneys (U373MG tumor; Kidneys, decreased percent of %ID/g between 1 h and 4 h, nude mice): 34%
%ID/g L. intestine (U373MG tumor; L. intestine, blocked tumor bearing nude mice (excess SP), 1 h p.i., mean ± SEM, P< 0.01 vs nonblocked): 0.73±0.14 %ID/g
%ID/g L. intestine (U373MG tumor; L. intestine, blocked tumor bearing nude mice (excess SP), 4 h p.i., mean ± SEM, P< 0.01 vs nonblocked): 0.70±0.16 %ID/g
D% L. intestine (U373MG tumor; L. intestine, decreased percent of %ID/g between 1 h and 4 h, nude mice): 3%
%ID/g L. intestine (U373MG tumor; L. intestine, tumor bearing nude mice, 1 h p.i., i.v., mean ± SEM, n=3): 1.89±0.15 %ID/g
%ID/g L. intestine (U373MG tumor; L. intestine, tumor bearing nude mice, 4 h p.i., i.v., mean ± SEM, n=3): 1.83±0.06 %ID/g
%ID/g Liver (U373MG tumor; Liver, blocked tumor bearing nude mice (excess SP), 1 h p.i., mean ± SEM): 0.96±0.10 %ID/g
%ID/g Liver (U373MG tumor; Liver, blocked tumor bearing nude mice (excess SP), 4 h p.i., mean ± SEM): 0.50±0.08 %ID/g
D% Liver (U373MG tumor; Liver, decreased percent of %ID/g between 1 h and 4 h, nude mice): 37%
%ID/g Liver (U373MG tumor; Liver, tumor bearing nude mice, 1 h p.i., i.v., mean ± SEM, n=3): 0.86±0.09 %ID/g
%ID/g Liver (U373MG tumor; Liver, tumor bearing nude mice, 4 h p.i., i.v., mean ± SEM, n=3): 0.54±0.07 %ID/g
%ID/g Lung (U373MG tumor; Lung, blocked tumor bearing nude mice (excess SP), 1 h p.i., mean ± SEM): 1.53±0.25 %ID/g
%ID/g Lung (U373MG tumor; Lung, blocked tumor bearing nude mice (excess SP), 4 h p.i., mean ± SEM): 0.67±0.09 %ID/g
D% Lung (U373MG tumor; Lung, decreased percent of %ID/g between 1 h and 4 h, nude mice): 48%
%ID/g Lung (U373MG tumor; Lung, tumor bearing nude mice, 1 h p.i., i.v., mean ± SEM, n=3): 1.47±0.15 %ID/g
%ID/g Lung (U373MG tumor; Lung, tumor bearing nude mice, 4 h p.i., i.v., mean ± SEM, n=3): 0.76±0.12 %ID/g
D% Muscle (U373MG tumor; Muscle, decreased percent of %ID/g between 1 h and 4 h, nude mice): 84%
%ID/g S. intestine (U373MG tumor; S. intestine, blocked tumor bearing nude mice (excess SP), 1 h p.i., mean ± SEM, P< 0.01 vs nonblocked): 0.83±0.12 %ID/g
%ID/g S. intestine (U373MG tumor; S. intestine, blocked tumor bearing nude mice (excess SP), 4 h p.i., mean ± SEM, P< 0.05 vs nonblocked): 0.36±0.09 %ID/g
D% S. intestine (U373MG tumor; S. intestine, decreased percent of %ID/g between 1 h and 4 h, nude mice): 70%
%ID/g S. intestine (U373MG tumor; S. intestine, tumor bearing nude mice, 1 h p.i., i.v., mean ± SEM, n=3): 2.57±0.34 %ID/g
%ID/g S. intestine (U373MG tumor; S. intestine, tumor bearing nude mice, 4 h p.i., i.v., mean ± SEM, n=3): 0.78±0.07 %ID/g
D% Salivary G. (U373MG tumor; Salivary G., decreased percent of %ID/g between 1 h and 4 h, nude mice): 66%
D% Stomach (U373MG tumor; Stomach, decreased percent of %ID/g between 1 h and 4 h, nude mice): 61%
D% Tumor (U373MG tumor; U373MG tumor, decreased percent of %ID/g between 1 h and 4 h, nude mice): 62%
%ID/g Tumor (U373MG tumor; U373MG tumor, tumor bearing nude mice, 1 h p.i., i.v., mean ± SEM, n=3): 3.36±0.26 %ID/g
tissue uptake at 1 h [1, 3]: 1.36 ± 0.19 %ID/g
tissue uptake at 4 h [1, 3]: 0.54 ± 0.08 %ID/g
tissue uptake at 4 h ([1]; U373MG tumor, U373MG tumor, tumor bearing nude mice, i.v., n=3, read-out: %ID/g Tumor): 1.26 ± 0.11 %ID/g
tissue uptake at 1 h [1, 4]: 1.7 ± 0.14 %ID/g
tissue uptake at 4 h [1, 4]: 0.52 ± 0.15 %ID/g
tissue uptake at 4 h ([1]; blood, Blood, tumor bearing nude mice, i.v., n=3, read-out: %ID/g Blood): 0.41 ± 0.12 %ID/g
tissue uptake at 1 h [1, 5]: 0.66 ± 0.07 %ID/g
tissue uptake at 4 h [1, 5]: 0.31 ± 0.03 %ID/g
tissue uptake at 1 h [1, 6]: 0.52 ± 0.06 %ID/g
tissue uptake at 4 h [1, 6]: 0.27 ± 0.03 %ID/g
tissue uptake at 1 h [1, 7]: 0.98 ± 0.09 %ID/g
tissue uptake at 4 h [1, 7]: 0.23 ± 0.02 %ID/g
tissue uptake at 1 h [1, 8]: 0.78 ± 0.11 %ID/g
tissue uptake at 4 h [1, 8]: 0.25 ± 0.02 %ID/g
tissue uptake at 1 h [1, 9]: 20.2 ± 0.61 %ID/g
tissue uptake at 4 h [1, 9]: 13.1 ± 0.76 %ID/g
tissue uptake at 1 h [1, 10]: 19.3 ± 0.65 %ID/g
tissue uptake at 4 h [1, 10]: 12.8 ± 0.52 %ID/g
tissue uptake at 1 h [1, 11]: 0.73 ± 0.09 %ID/g
tissue uptake at 4 h [1, 11]: 0.09 ± 0.01 %ID/g
tissue uptake at 1 h [1, 12]: 0.51 ± 0.06 %ID/g
tissue uptake at 4 h [1, 12]: 0.08 ± 0.01 %ID/g
tissue uptake at 1 h [1, 13]: 0.95 ± 0.06 %ID/g
tissue uptake at 4 h [1, 13]: 0.41 ± 0.03 %ID/g
tissue uptake at 1 h [1, 14]: 1 ± 0.09 %ID/g
tissue uptake at 4 h [1, 14]: 0.33 ± 0.04 %ID/g
tissue uptake at 1 h [1, 15]: 0.34 ± 0.04 %ID/g
tissue uptake at 4 h [1, 15]: 0.26 ± 0.03 %ID/g
tissue uptake at 1 h [1, 16]: 0.46 ± 0.07 %ID/g
tissue uptake at 4 h [1, 16]: 0.32 ± 0.03 %ID/g
tissue uptake at 1 h [1, 17]: 0.63 ± 0.13 %ID/g
tissue uptake at 4 h [1, 17]: 0.26 ± 0.05 %ID/g
tissue uptake at 1 h [1, 18]: 0.81 ± 0.12 %ID/g
tissue uptake at 4 h [1, 18]: 0.32 ± 0.03 %ID/g
stability in human serum (Stability in human serum): good stability
fraction unbound at 2 h [2]: 0.56
